The numbers were not newly measured in publication PMC3138048, which cites them from elsewhere.

This series concerns the target Lys199 (UniProt position 223, AKQRLKCASLQ). Kind of series: chemical modification.

“Human serum albumin (HSA) (Homo sapiens)”: the pKa (commonly the pH at which an ionisable group is half protonated) is recorded as 7.9.
